We go through three molecules from paper doi:10.1101/2023.10.30.564768, “The LexA-RecA* structure reveals a lock-and-key mechanism for SOS activation” (bioRxiv, 2023).

For data set [1], the target named is T1, His-RecA WT, activated as RecA* (nucleoprotein filament on ssDNA with ATPγS) (E. coli, UniProt P0A7G6 1-353).
T1 construct: RecA, E. coli; source: E. coli ΔrecA BLR(DE3), purified (cobalt resin, ammonium sulfate, heparin); not shown: poly-His, N-terminal, kept
T1 sequence (looked up): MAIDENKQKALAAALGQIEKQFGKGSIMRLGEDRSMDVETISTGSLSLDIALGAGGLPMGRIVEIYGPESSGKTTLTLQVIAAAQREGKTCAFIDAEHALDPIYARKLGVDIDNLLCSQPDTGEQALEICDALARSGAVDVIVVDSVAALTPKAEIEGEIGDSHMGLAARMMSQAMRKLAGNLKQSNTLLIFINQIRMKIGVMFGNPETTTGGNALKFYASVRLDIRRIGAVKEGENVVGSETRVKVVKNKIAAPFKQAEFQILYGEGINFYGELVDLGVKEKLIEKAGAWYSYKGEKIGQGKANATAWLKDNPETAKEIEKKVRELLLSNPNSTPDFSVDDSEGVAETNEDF
As to the kind of experiment: fluorescence polarisation; competition, fluorescence anisotropy; unlabeled LexA K156A or QM (140 nM to 18.3 µM) spiked into pre-formed RecA* alongside LexA Q161δ; three-parameter dose-response fit. To be noted: both partners purified.

Data set [2] deals with the molecule itself. As to the kind of experiment: cryo-EM structure; RecA* pre-formed from 5 µM His-RecA WT and 1 µM GGT 90-mer ssDNA in 70 mM Tris-HCl pH 7.5, 150 mM NaCl, 1 mM MgCl2, 2 mM TCEP, 0.25 mM ATPγS, 20 min; LexA K156A added to 25 µM, 30 min, room temperature.

B1: His-LexA K156A (natural protein, E. coli, UniProt P0A7C2 1-202, looked up)
chain: MKALTARQQEVFDLIRDHISQTGMPPTRAEIAQRLGFRSPNAAEEHLKALARKGVIEIVSGASRGIRLLQEEEEGLPLVGRVAAGEPLLAQQHIEGHYQVDPSLFKPNADFLLRVSGMSMKDIGIMDGDLLAVHKTQDVRNGQVVVARIDDEVTVARLKKQGNKVELLPENSEFKPIVVDLRQQSFTIEGLAVGVIRNGDWL
notes: LexA repressor, E. coli; source: E. coli BL21(DE3), purified (cobalt resin, heparin)
Regarding B1, the binding result in data set [1] is “binds”.

B2: untagged LexA K156A (full-length, catalytically inactive) (natural protein, E. coli, UniProt P0A7C2 1-202, looked up)
chain: MKALTARQQEVFDLIRDHISQTGMPPTRAEIAQRLGFRSPNAAEEHLKALARKGVIEIVSGASRGIRLLQEEEEGLPLVGRVAAGEPLLAQQHIEGHYQVDPSLFKPNADFLLRVSGMSMKDIGIMDGDLLAVHKTQDVRNGQVVVARIDDEVTVARLKKQGNKVELLPENSEFKPIVVDLRQQSFTIEGLAVGVIRNGDWL
notes: LexA repressor, E. coli; Used for cryo-EM only; source: E. coli BL21(DE3), purified (cobalt resin, heparin; His-tag removed with thrombin); not shown: poly-His, N-terminal, cleaved
For the molecule B2, the binding result in data set [2] is recorded as “binds”.

B3: LexA quad-mutant (QM): L89P, Q92W, E152A, K156A (natural protein, E. coli, UniProt P0A7C2 1-202, looked up)
chain: MKALTARQQEVFDLIRDHISQTGMPPTRAEIAQRLGFRSPNAAEEHLKALARKGVIEIVSGASRGIRLLQEEEEGLPLVGRVAAGEPLPAQWHIEGHYQVDPSLFKPNADFLLRVSGMSMKDIGIMDGDLLAVHKTQDVRNGQVVVARIDDAVTVARLKKQGNKVELLPENSEFKPIVVDLRQQSFTIEGLAVGVIRNGDWL
notes: LexA repressor, E. coli; also called LexA QM; hyperactive LexA variant; source: E. coli BL21(DE3), purified (cobalt resin, heparin)
On to B3, for which the “fold weaker binding relative to LexA K156A” value in data set [1] was approximately 8 fold.
